Measurements reported in the supplement of paper PMC9876800.

Tested on: peptide library, one residue held at a place counted from the S/T acceptor
Assay: relative phosphorylation of the sub-library (ratio to the mean residue at this position); higher = residue favoured
Procedure, shortened: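 Relative sub-library phosphorylation is a ratio to the mean residue at the same position. Purified recombinant kinases were incubated under kinase-specific conditions with biotinylated degenerate peptide sub-libraries, each fixing one residue at one position around a central Ser/Thr, using 50 μM peptide and 50 μM ATP spiked with γ-32P-ATP for 90 min. Spots captured on streptavidin membranes were phosphorimaged and quantified by densitometry.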

ERN1, construct: aa468-end, human, sequence (O75460 468-977, looked up): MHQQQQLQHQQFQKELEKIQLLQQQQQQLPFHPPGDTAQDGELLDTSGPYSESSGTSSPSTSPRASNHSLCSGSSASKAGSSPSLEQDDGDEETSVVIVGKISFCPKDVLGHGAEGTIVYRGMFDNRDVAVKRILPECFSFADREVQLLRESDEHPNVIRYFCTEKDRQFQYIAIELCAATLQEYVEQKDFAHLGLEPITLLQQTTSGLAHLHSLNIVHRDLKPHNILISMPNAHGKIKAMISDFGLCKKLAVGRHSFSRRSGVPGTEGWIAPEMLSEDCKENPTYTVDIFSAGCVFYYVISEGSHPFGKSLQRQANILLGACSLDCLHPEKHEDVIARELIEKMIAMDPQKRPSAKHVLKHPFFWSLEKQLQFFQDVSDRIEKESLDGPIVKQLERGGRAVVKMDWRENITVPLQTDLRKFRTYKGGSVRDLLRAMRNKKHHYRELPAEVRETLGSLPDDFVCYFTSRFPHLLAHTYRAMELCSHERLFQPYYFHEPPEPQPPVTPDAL
NEK3, construct: Full length, human, sequence (P51956 whole entry, looked up): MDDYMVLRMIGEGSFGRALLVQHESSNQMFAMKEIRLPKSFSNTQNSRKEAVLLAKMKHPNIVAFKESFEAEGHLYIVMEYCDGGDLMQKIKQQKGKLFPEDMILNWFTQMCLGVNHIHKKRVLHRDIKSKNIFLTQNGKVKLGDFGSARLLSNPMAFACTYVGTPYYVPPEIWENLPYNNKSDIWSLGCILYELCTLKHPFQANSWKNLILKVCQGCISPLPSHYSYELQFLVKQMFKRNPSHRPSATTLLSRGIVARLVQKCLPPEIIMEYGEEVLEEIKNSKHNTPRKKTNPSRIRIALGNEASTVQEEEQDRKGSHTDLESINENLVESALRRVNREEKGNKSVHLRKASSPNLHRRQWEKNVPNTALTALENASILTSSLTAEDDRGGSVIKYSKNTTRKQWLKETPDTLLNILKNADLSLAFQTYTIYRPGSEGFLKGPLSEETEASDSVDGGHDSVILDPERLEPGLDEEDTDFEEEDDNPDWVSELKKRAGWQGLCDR
LATS2, construct: aa553-end, human, sequence (Q9NRM7 553-1088, looked up): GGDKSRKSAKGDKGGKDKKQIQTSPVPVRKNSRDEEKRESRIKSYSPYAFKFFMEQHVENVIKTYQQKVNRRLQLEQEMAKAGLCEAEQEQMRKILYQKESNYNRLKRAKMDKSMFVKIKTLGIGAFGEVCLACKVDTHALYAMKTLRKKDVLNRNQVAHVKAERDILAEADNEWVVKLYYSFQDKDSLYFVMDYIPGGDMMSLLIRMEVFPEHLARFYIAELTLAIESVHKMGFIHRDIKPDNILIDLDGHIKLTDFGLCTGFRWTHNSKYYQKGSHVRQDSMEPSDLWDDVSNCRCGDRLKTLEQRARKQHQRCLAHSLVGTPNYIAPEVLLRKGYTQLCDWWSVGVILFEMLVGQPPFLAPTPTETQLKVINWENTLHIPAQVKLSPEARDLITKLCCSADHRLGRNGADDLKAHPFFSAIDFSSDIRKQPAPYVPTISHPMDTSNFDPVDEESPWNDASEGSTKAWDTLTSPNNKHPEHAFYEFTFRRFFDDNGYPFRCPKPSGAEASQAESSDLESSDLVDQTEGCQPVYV
MAP3K11, construct: aa99-398, human, sequence (Q16584 99-398, looked up): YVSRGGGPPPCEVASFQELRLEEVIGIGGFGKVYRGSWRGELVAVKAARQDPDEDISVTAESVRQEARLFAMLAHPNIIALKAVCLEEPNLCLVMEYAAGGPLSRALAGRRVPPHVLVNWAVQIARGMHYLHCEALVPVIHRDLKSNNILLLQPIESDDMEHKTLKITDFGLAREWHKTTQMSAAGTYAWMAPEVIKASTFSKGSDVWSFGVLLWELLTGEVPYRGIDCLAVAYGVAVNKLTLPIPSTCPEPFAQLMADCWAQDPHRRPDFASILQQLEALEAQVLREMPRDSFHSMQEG

MAP3K11, construct: aa99-398, human (from UniProt Q16584)
relative phosphorylation
Conditions | at +1 | at +2 | at +3 | at +4 | at -1 | at -2 | at -3 | at -4 | at -5
A fixed | 0.654 | 0.524 | 0.71 | 0.779 | 0.713 | 0.983 | 1.06 | 1.02 | 1.21
D fixed | 0.261 | 0.298 | 0.538 | 0.592 | 1.06 | 1.07 | 1.34 | 1.66 | 1.78
E fixed | 0.424 | 0.285 | 0.445 | 0.549 | 0.891 | 0.89 | 1.35 | 1.46 | 1.24
F fixed | 1.15 | 0.42 | 1.21 | 0.746 | 0.792 | 1.12 | 0.841 | 0.799 | 0.716
G fixed | 0.664 | 0.458 | 1.1 | 1.03 | 0.453 | 1.06 | 1.36 | 1.34 | 1.39
H fixed | 1.36 | 1.53 | 1.17 | 1.07 | 1.52 | 0.919 | 1.24 | 1.03 | 1.14
I fixed | 0.625 | 0.392 | 0.562 | 0.605 | 0.522 | 0.769 | 0.428 | 0.529 | 0.508
K fixed | 1.79 | 3.9 | 2.18 | 3.13 | 1.3 | 0.55 | 0.933 | 0.901 | 1.2
L fixed | 0.71 | 0.407 | 1 | 0.589 | 0.946 | 0.738 | 0.654 | 0.722 | 0.781
M fixed | 1.35 | 0.49 | 0.743 | 0.656 | 1.28 | 1.16 | 0.835 | 0.749 | 0.634
N fixed | 0.699 | 0.666 | 0.971 | 0.834 | 1.16 | 0.949 | 1.1 | 0.947 | 0.996
P fixed | 0.268 | 0.352 | 0.641 | 1.58 | 0.914 | 2.31 | 1.64 | 1.63 | 1.4
Q fixed | 1.33 | 0.705 | 0.753 | 0.876 | 0.901 | 0.679 | 0.948 | 0.89 | 0.865
R fixed | 2.38 | 4.19 | 1.9 | 2.01 | 1.38 | 0.678 | 0.898 | 0.918 | 0.993
V fixed | 0.903 | 0.367 | 0.756 | 0.647 | 0.771 | 0.779 | 0.581 | 0.559 | 0.903
W fixed | 1.29 | 0.729 | 1.16 | 0.527 | 0.928 | 1.16 | 0.754 | 0.924 | 0.522
Y fixed | 1.14 | 1.29 | 1.17 | 0.784 | 1.48 | 1.18 | 1.04 | 0.92 | 0.711
pThr fixed | 0.895 | 0.476 | 0.69 | 0.685 | 0.686 | 1.02 | 1.18 | 1.38 | 1.21
pTyr fixed | 0.498 | 0.528 | 0.608 | 0.454 | 1.08 | 0.972 | 1.27 | 1.06 | 1.08

ERN1, construct: aa468-end, human (from UniProt O75460)
relative phosphorylation
Conditions | at +1 | at +2 | at +3 | at +4 | at -1 | at -2 | at -3 | at -4 | at -5
A fixed | 0.993 | 0.597 | 0.656 | 0.755 | 1.28 | 1.07 | 1.06 | 1.11 | 1.07
D fixed | 0.229 | 0.173 | 0.375 | 0.276 | 0.33 | 0.672 | 0.705 | 0.813 | 0.747
E fixed | 0.263 | 0.158 | 0.201 | 0.26 | 0.373 | 0.869 | 0.801 | 0.831 | 0.781
F fixed | 0.67 | 0.858 | 1.32 | 1.07 | 0.966 | 1.13 | 0.781 | 0.708 | 0.873
G fixed | 1.15 | 0.662 | 0.791 | 0.892 | 0.804 | 1.26 | 1.59 | 1.29 | 1.25
H fixed | 0.835 | 1.9 | 1.31 | 1.03 | 1.75 | 1.03 | 1.03 | 0.948 | 1.07
I fixed | 0.632 | 1.08 | 0.76 | 0.849 | 0.562 | 0.794 | 0.906 | 0.949 | 1.04
K fixed | 2.21 | 1.7 | 1.45 | 2.02 | 1.89 | 1.14 | 1.2 | 1.48 | 1.49
L fixed | 0.643 | 1.21 | 0.973 | 0.766 | 0.658 | 0.857 | 0.854 | 0.87 | 0.97
M fixed | 1.03 | 1.14 | 0.85 | 0.929 | 0.937 | 0.9 | 0.818 | 0.937 | 0.871
N fixed | 1.14 | 0.559 | 0.793 | 0.795 | 0.844 | 0.933 | 0.926 | 1.03 | 0.956
P fixed | 0.258 | 0.347 | 0.525 | 0.851 | 0.833 | 1.43 | 1.08 | 0.981 | 0.909
Q fixed | 1.2 | 0.65 | 0.683 | 0.912 | 0.986 | 0.958 | 0.833 | 0.878 | 0.822
R fixed | 3.41 | 2.73 | 3.08 | 2.09 | 1.86 | 1.29 | 1.77 | 1.45 | 1.28
V fixed | 0.78 | 1.19 | 0.726 | 0.85 | 1.02 | 0.982 | 0.938 | 0.911 | 0.971
W fixed | 0.775 | 0.963 | 1.19 | 1.45 | 0.74 | 0.724 | 0.813 | 0.924 | 0.926
Y fixed | 0.778 | 1.08 | 1.31 | 1.2 | 1.16 | 0.951 | 0.906 | 0.888 | 0.963
pThr fixed | 0.381 | 0.299 | 0.315 | 0.372 | 0.448 | 0.996 | 1.2 | 0.999 | 0.991
pTyr fixed | 0.3 | 0.61 | 0.58 | 0.345 | 0.571 | 1.16 | 1 | 0.776 | 0.916

NEK3, construct: Full length, human (from UniProt P51956)
relative phosphorylation
Conditions | at +1 | at +2 | at +3 | at +4 | at -1 | at -2 | at -3 | at -4 | at -5
A fixed | 0.842 | 0.788 | 1.09 | 0.919 | 1.02 | 0.977 | 1.09 | 1.16 | 1.06
D fixed | 0.145 | 0.299 | 0.257 | 0.346 | 0.588 | 0.551 | 0.343 | 0.456 | 0.653
E fixed | 0.12 | 0.323 | 0.219 | 0.321 | 0.496 | 0.632 | 0.36 | 0.511 | 0.632
F fixed | 1.67 | 0.786 | 1.1 | 0.796 | 0.841 | 1.37 | 1.98 | 1.43 | 1.05
G fixed | 0.687 | 1.41 | 1.42 | 1.64 | 1.33 | 1.45 | 1.51 | 1.28 | 1.25
H fixed | 1.13 | 1.45 | 1.07 | 1.35 | 1.45 | 1.21 | 1.11 | 1.03 | 1.17
I fixed | 1.65 | 0.967 | 1.12 | 0.984 | 0.629 | 0.749 | 0.642 | 0.798 | 0.97
K fixed | 0.579 | 1.4 | 1.07 | 1.24 | 1.07 | 0.866 | 0.478 | 1.02 | 1.1
L fixed | 1.29 | 0.674 | 1.22 | 0.841 | 0.865 | 1.19 | 1.65 | 1.09 | 0.959
M fixed | 1.94 | 1.09 | 1.05 | 0.982 | 1.59 | 1.42 | 1.87 | 1.2 | 1.27
N fixed | 0.416 | 1.21 | 0.721 | 1.05 | 1.03 | 0.903 | 0.657 | 0.848 | 1.02
P fixed | 0.351 | 0.719 | 1.2 | 1.38 | 0.204 | 0.259 | 0.495 | 0.597 | 0.821
Q fixed | 0.719 | 0.826 | 0.873 | 0.769 | 0.846 | 0.826 | 0.561 | 0.867 | 0.74
R fixed | 0.807 | 2.17 | 1.28 | 1.6 | 2 | 0.822 | 1.05 | 1.05 | 1.54
V fixed | 1.66 | 0.904 | 1.01 | 0.768 | 0.739 | 0.734 | 0.486 | 0.823 | 0.7
W fixed | 1.56 | 0.774 | 1.27 | 1.08 | 0.938 | 1.49 | 1.42 | 1.79 | 0.993
Y fixed | 1.42 | 1.21 | 1.05 | 0.958 | 1.36 | 1.55 | 1.28 | 1.05 | 1.07
pThr fixed | 0.188 | 0.183 | 0.26 | 0.166 | 0.146 | 0.255 | 0.386 | 0.57 | 0.612
pTyr fixed | 0.165 | 0.278 | 0.254 | 0.254 | 0.414 | 0.612 | 0.399 | 0.446 | 0.642

LATS2, construct: aa553-end, human (from UniProt Q9NRM7)
relative phosphorylation
Conditions | at +1 | at +2 | at +3 | at +4 | at -1 | at -2 | at -3 | at -4 | at -5
A fixed | 0.577 | 1.11 | 0.859 | 0.703 | 0.693 | 0.789 | 0.766 | 1.15 | 0.615
D fixed | 0.89 | 2.94 | 1.47 | 1.4 | 0.702 | 0.901 | 0.465 | 0.649 | 0.475
E fixed | 0.953 | 0.932 | 1.36 | 1.49 | 0.516 | 1.27 | 0.352 | 0.739 | 0.308
F fixed | 1.29 | 0.699 | 0.846 | 0.865 | 0.483 | 0.764 | 0.415 | 0.981 | 0.672
G fixed | 0.876 | 1.53 | 1.54 | 1.27 | 0.994 | 1.13 | 0.769 | 1.15 | 0.706
H fixed | 0.995 | 1.27 | 1.2 | 1.31 | 1.07 | 1.43 | 1.66 | 1.36 | 6.2
I fixed | 1.16 | 0.853 | 0.778 | 0.671 | 0.331 | 0.321 | 0.242 | 0.49 | 0.308
K fixed | 0.821 | 0.357 | 0.868 | 0.756 | 2.74 | 1.03 | 2.4 | 1.27 | 1.12
L fixed | 1.12 | 0.862 | 0.825 | 0.661 | 0.699 | 0.393 | 0.297 | 0.587 | 0.458
M fixed | 1.49 | 0.841 | 0.875 | 1.07 | 0.71 | 0.91 | 0.36 | 0.92 | 0.439
N fixed | 1.42 | 1.01 | 1.03 | 1.28 | 1.12 | 1.64 | 0.784 | 0.925 | 0.607
P fixed | 0.328 | 0.794 | 1.04 | 1.33 | 2.39 | 0.766 | 1.48 | 1.34 | 0.682
Q fixed | 1.11 | 0.789 | 1.04 | 1.05 | 1.19 | 2.35 | 0.897 | 1.08 | 0.719
R fixed | 0.717 | 0.357 | 0.617 | 0.741 | 1.42 | 1.26 | 4.37 | 1.78 | 1.43
V fixed | 0.84 | 0.829 | 0.747 | 0.524 | 0.425 | 0.367 | 0.325 | 0.545 | 0.445
W fixed | 1.23 | 0.807 | 1.03 | 0.887 | 0.746 | 0.899 | 0.691 | 1.08 | 1.04
Y fixed | 1.18 | 1.02 | 0.874 | 0.996 | 0.779 | 0.782 | 0.734 | 0.966 | 0.776
pThr fixed | 1.08 | 0.655 | 0.925 | 1.55 | 0.287 | 0.456 | 0.441 | 0.552 | 0.349
pTyr fixed | 1.09 | 0.807 | 1.04 | 1.12 | 0.347 | 0.382 | 0.418 | 0.548 | 0.442
